{"source": "paper PMC9828337", "about": "(Angewandte Chemie (International Ed. in English), 2022)", "binders": {"B1": {"name": "VenL kinase domain (residues 213–513) (domain or fragment)", "chain": "DGSREARGAGAPVLLGGRFAVREAIRHTNKGGVYRGSDVRTGALVVIKEARPHVEADASGHDVRDWLRTEARTLERLRGTGLAPEPLALFEHGGHLFLAQQEVPGVALRTWVAEHFRDAGAERYRVDARAQVGRLVELVAAAHAHGCVLRDFTPGNVMVRPDGELRLIDLELAVLEGDAARPTRVGTPGFSAPERLTGAPVSPTGDYYSLGATACFVLAGKVPNLLPEEPATRAPEQRLAAWLSACAGPLRLPDGLAEMVLGLMKDAPAERWDPARAREALRRADRDDPVTGKPEDSKGSK"}}, "key": {"[1]": {"molecular_target": "CurKC lyase domain (residues 1–217) (Thermomonospora curvata DSM43183, fluorophore label in the MST assays (position not given))", "assay": "MST"}, "[2]": {"molecular_target": "T1, VenL lyase domain (residues 1–212)", "T1 chain": "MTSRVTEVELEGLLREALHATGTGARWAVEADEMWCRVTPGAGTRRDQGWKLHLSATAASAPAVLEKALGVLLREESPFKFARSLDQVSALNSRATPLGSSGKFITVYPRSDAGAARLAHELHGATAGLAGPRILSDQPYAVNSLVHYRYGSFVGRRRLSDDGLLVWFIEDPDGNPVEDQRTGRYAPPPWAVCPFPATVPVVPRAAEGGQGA", "assay": "MST"}}, "data": [{"binder": "B1", "values": [{"measurement": "Kd", "setting": "[1]", "result": "24.3 ± 3.5", "unit": "µM"}, {"measurement": "Kd", "setting": "[2]", "result": "32.3 ± 2.9", "unit": "µM"}]}]}
